From IntAct's records for PubMed 35266954

Columns and labels:
trim1_human MID2 = trim1_human MID2 (UniProt Q9UJV3)
1433t_human YWHAQ = 1433t_human YWHAQ (UniProt P27348)
Sequence of UniProt P27348 (P27348 whole entry): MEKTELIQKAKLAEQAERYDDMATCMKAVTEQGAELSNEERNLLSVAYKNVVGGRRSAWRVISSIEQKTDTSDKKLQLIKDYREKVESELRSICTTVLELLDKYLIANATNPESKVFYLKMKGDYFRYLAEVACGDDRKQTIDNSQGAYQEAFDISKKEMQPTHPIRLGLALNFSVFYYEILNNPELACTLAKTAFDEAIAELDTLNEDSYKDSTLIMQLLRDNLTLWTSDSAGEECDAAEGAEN

Sequence of UniProt Q9UJV3 (Q9UJV3 whole entry): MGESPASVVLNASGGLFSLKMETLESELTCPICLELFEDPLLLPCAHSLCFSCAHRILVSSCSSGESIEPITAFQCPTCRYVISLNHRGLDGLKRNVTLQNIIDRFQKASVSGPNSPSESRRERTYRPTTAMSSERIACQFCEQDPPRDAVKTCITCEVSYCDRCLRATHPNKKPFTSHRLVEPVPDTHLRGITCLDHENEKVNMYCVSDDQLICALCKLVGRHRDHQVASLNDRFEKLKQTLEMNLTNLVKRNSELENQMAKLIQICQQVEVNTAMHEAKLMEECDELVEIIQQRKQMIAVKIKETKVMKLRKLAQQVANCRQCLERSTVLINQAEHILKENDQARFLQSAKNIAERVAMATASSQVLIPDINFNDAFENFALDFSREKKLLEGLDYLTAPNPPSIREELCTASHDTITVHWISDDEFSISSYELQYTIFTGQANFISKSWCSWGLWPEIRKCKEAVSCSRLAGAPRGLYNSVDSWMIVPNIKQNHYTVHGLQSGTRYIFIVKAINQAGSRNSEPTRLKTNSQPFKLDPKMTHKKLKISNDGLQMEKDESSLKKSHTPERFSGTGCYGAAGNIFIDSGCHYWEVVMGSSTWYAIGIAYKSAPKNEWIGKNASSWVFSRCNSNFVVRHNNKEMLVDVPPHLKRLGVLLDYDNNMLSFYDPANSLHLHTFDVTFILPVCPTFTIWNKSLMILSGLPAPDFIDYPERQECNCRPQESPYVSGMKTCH

Row | effect of a mutation on the interaction (trim1_human MID2) | effect of a mutation on the interaction (1433t_human YWHAQ) | Substance
1 | with no effect | – | Leucine-rich repeat serine/threonine-protein kinase 2 (Homo sapiens), Q5S007 G2019S
2 | – | disrupting interaction strength | Leucine-rich repeat serine/threonine-protein kinase 2 (Homo sapiens), Q5S007 R1441C
3 | – | disrupting interaction strength | Leucine-rich repeat serine/threonine-protein kinase 2 (Homo sapiens), Q5S007 S910A;S935A
4 | – | disrupting interaction strength | Leucine-rich repeat serine/threonine-protein kinase 2 (Homo sapiens), Q5S007 S910D;S935D
